Assay results reported in publication PMC4490410.

Experiments:
Details in all cases: remark: other sources report otherwise
[1] = target: T1, DJ-1 (endogenous, human) (human (endogenous in human brain, M17D cells, iPSC-derived neurons)), Q99497; experiment: cross-linking; intact neurons differentiated from A53T patient iPSCs or the corrected isogenic line; DSG; sequential extraction, cytosol blotted with 2F12, C20, Syn1
T1 chain: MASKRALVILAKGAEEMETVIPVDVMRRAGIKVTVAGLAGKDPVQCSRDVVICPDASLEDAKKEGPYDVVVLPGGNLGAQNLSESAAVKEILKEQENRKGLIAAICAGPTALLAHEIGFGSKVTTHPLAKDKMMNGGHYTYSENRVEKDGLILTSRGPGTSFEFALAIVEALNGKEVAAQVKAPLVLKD

[2] = target: T1, DJ-1 (endogenous, human) (human …); experiment: cross-linking; intact-cell crosslinking of minced, washed fresh human cortical biopsy; 1 mM DSG at increasing volume-to-protein ratio (DSP reduced by βME for total αS), 37 °C 30 min; then PBS ('cytosol') and TX-100 ('membrane') fractions, western blot
[3] = target: T1, DJ-1 (endogenous, human) (human …); experiment: cross-linking; intact M17D cells transiently transfected with untagged αS variants; 1 mM DSG or 1.75 mM DSP, 30 min 37 °C; cytosol (PBS) or PBS/1% TX-100 lysate, western blot (Syn1) densitometry; values of the fPD mutants from a meta-analysis of DSG and DSP experiments

Measured: stoichiometry N

B1: DJ-1 (endogenous, human), Q99497 1-189 (natural protein)
chain: MASKRALVILAKGAEEMETVIPVDVMRRAGIKVTVAGLAGKDPVQCSRDVVICPDASLEDAKKEGPYDVVVLPGGNLGAQNLSESAAVKEILKEQENRKGLIAAICAGPTALLAHEIGFGSKVTTHPLAKDKMMNGGHYTYSENRVEKDGLILTSRGPGTSFEFALAIVEALNGKEVAAQVKAPLVLKD
2: [1] | [2] | [3]
